Measurements from publication PMC3903306.
pKd: −log10 of the molar value.

Tests used:
IpgC (Shigella flexneri) = IpgC (Shigella flexneri) (UniProt P0A2U4); experiment: ITC
[1] = target: IpaB^1.226 (Shigella flexneri); experiment: cross-linking
[2] = target: FM-IpaB^C28.226 (Shigella flexneri); experiment: fluorescence polarisation
[3] = target: FM-IpaB^C1.226 (Shigella flexneri); experiment: fluorescence polarisation
[4] = target: FM-IpaB^N28.226 (Shigella flexneri); experiment: fluorescence polarisation
[5] = target: FM-IpaB^N1.226 (Shigella flexneri); experiment: fluorescence polarisation
[6] = target: IpaB^28.226 (Shigella flexneri); experiment: cross-linking

Substance | pKd (IpgC (Shigella flexneri)) | dH (IpgC (Shigella flexneri)) [kcal/mol] | stoichiometry N (IpgC (Shigella flexneri)) | stoichiometry N [1] | pKd [2] | pKd [3] | pKd [4] | pKd [5] | stoichiometry N [6]
IpaB^1.226 (domain or fragment) | 6.68 | 8.68 | 1.03 | 2 |  |  |  |  | 
IpgC (from UniProt P0A2U4 1-155) (natural protein) |  |  |  |  | 6.30 | 7.23 | 6.39 | 6.70 | 
IpaB^28.226 (domain or fragment) | 5.53 | 3.55 | 0.88 |  |  |  |  |  | 2
